According to patent US20240226163A1 (Regeneron, published 2024):

Legend:
[1] = target: HLA-A*02:01 presenting MAGE-A4 286-294 peptide (…) (human); assay: cell-based or functional assay
[2] = target: HLA-A*02:01 presenting MAGE-A4 286-294 peptide (…) (human); assay: cell-based or functional assay; remark: listed apart in the source
[3] = target: T1, HLA-A*02:01 presenting HEATR5A 1925-1933 peptide (…) (human); assay: cell-based or functional assay
[4] = target: HLA-A*02:01 presenting FN1 2182-2190 peptide (…) (human); assay: cell-based or functional assay
[5] = target: HLA-A*02:01 presenting SHTN1 198-206 peptide (…) (human); assay: cell-based or functional assay
[6] = target: HLA-A*02:01 presenting MAGE-A4 286-294 peptide (…) (human); assay: cell-based or functional assay; remark: listed apart in the source
[7] = target: HLA-A*02:01 presenting AOX1 795-803 peptide (…) (human); assay: cell-based or functional assay
[8] = target: HLA-A*02:01 presenting TEP1 2156-2164 peptide (…) (human); assay: cell-based or functional assay
[9] = target: HLA-A*02:01 presenting RABGAP1L 408-416 peptide (…) (human); assay: cell-based or functional assay
[10] = target: HLA-A*02:01 presenting PCDHGC3 337-345 peptide (…) (human); assay: cell-based or functional assay
[11] = target: HLA-A*02:01 presenting SMIM11A 4-12 peptide (…) (human); assay: cell-based or functional assay
[12] = target: HLA-A*02:01 presenting NBAS 2063-2071 peptide (…) (human); assay: cell-based or functional assay
[13] = target: HLA-A*02:01 presenting CARD8 170-178 peptide (…) (human); assay: cell-based or functional assay
[14] = target: HLA-A*02:01 presenting PSME2 145-153 peptide (…) (human); assay: cell-based or functional assay
[15] = target: HLA-A*02:01 presenting CNOT1 1965-1973 peptide (…) (human); assay: cell-based or functional assay
[16] = target: HLA-A*02:01 presenting PLEKHH2 790-798 peptide (…) (human); assay: cell-based or functional assay
[17] = target: HLA-A*02:01 presenting MRPL37 334-342 peptide (…) (human); assay: cell-based or functional assay
[18] = target: T1, HLA-A*02:01 presenting HEATR5A …; assay: flow cytometry, peptide-pulsed T2 cells;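 as to S/N ratio: ratio of peak mean fluorescence intensity across a 12-point threefold antibody dilution series to the MFI with secondary antibody only, live-gated cells by flow cytometry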
[19] = target: T2, HLA-A*02:01 presenting FN1 2182-2190 peptide (…) (human); assay: flow cytometry, peptide-pulsed T2 cells;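 as to S/N ratio: ratio of peak mean fluorescence intensity across a 12-point threefold antibody dilution series to the MFI with secondary antibody only, live-gated cells by flow cytometry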
T2 construct: On peptide-pulsed T2 cells; also called T2 Pulsed FN1 2182-2190

[20] = target: T3, HLA-A*02:01 presenting TEP1 2156-2164 peptide (…) (human); assay: flow cytometry, peptide-pulsed T2 cells;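 as to S/N ratio: ratio of peak mean fluorescence intensity across a 12-point threefold antibody dilution series to the MFI with secondary antibody only, live-gated cells by flow cytometry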
T3 construct: On peptide-pulsed T2 cells; also called T2 Pulsed TEP1 2156-2164

[21] = target: T4, HLA-A*02:01 presenting RABGAP1L 408-416 peptide (…) (human); assay: flow cytometry, peptide-pulsed T2 cells;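 as to S/N ratio: ratio of peak mean fluorescence intensity across a 12-point threefold antibody dilution series to the MFI with secondary antibody only, live-gated cells by flow cytometry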
T4 construct: On peptide-pulsed T2 cells; also called T2 Pulsed RABGAP1L 408-416

[22] = target: T5, HLA-A*02:01 presenting PCDHGC3 337-345 peptide (…) (human); assay: flow cytometry, peptide-pulsed T2 cells
T5 construct: On peptide-pulsed T2 cells; also called T2 Pulsed PCDHGC3 337-345

[23] = target: T6, HLA-A*02:01 presenting SMIM11A 4-12 peptide (…) (human); assay: flow cytometry, peptide-pulsed T2 cells
T6 construct: On peptide-pulsed T2 cells; also called T2 Pulsed SMIM11A 4-12

[24] = target: T7, HLA-A*02:01 presenting NBAS 2063-2071 peptide (…) (human); assay: flow cytometry, peptide-pulsed T2 cells
T7 construct: On peptide-pulsed T2 cells; also called T2 Pulsed NBAS 2063-2071

[25] = target: T8, HLA-A*02:01 presenting CARD8 170-178 peptide (…) (human); assay: flow cytometry, peptide-pulsed T2 cells
T8 construct: On peptide-pulsed T2 cells; also called T2 Pulsed CARD8 170-178

[26] = target: T9, HLA-A*02:01 presenting PSME2 145-153 peptide (…) (human); assay: flow cytometry, peptide-pulsed T2 cells
T9 construct: On peptide-pulsed T2 cells; also called T2 Pulsed PSME2 145-153

[27] = target: T10, HLA-A*02:01 presenting CNOT1 1965-1973 peptide (…) (human); assay: flow cytometry, peptide-pulsed T2 cells
T10 construct: On peptide-pulsed T2 cells; also called T2 Pulsed CNOT1 1965-1973

[28] = target: T11, HLA-A*02:01 presenting PLEKHH2 790-798 peptide (…) (human); assay: flow cytometry, peptide-pulsed T2 cells
T11 construct: On peptide-pulsed T2 cells; also called T2 Pulsed PLEKHH2 790-798

[29] = target: T12, HLA-A*02:01 presenting MRPL37 334-342 peptide (…) (human); assay: flow cytometry, peptide-pulsed T2 cells
T12 construct: On peptide-pulsed T2 cells; also called T2 Pulsed MRPL37 334-342

[30] = target: T1, HLA-A*02:01 presenting HEATR5A …; assay: flow cytometry, peptide-pulsed T2 cells; remark: listed apart in the source
[31] = target: T2, HLA-A*02:01 presenting FN1 2182-2190 …; assay: flow cytometry, peptide-pulsed T2 cells; remark: listed apart in the source
[32] = target: T13, HLA-A*02:01 presenting SHTN1 198-206 peptide (…) (human); assay: flow cytometry, peptide-pulsed T2 cells
T13 construct: On peptide-pulsed T2 cells; also called T2 Pulsed SHTN1 198-206

[33] = target: T14, HLA-A*02:01 presenting MAGE-A4 286-294 peptide (…) (human); assay: flow cytometry, peptide-pulsed T2 cells
T14 construct: On peptide-pulsed T2 cells

[34] = target: T15, HLA-A*02:01 presenting AOX1 795-803 peptide (…) (human); assay: flow cytometry, peptide-pulsed T2 cells
T15 construct: On peptide-pulsed T2 cells; also called T2 Pulsed AOX1 795-803

[35] = target: T3, HLA-A*02:01 presenting TEP1 2156-2164 …; assay: flow cytometry, peptide-pulsed T2 cells; remark: listed apart in the source
[36] = target: T4, HLA-A*02:01 presenting RABGAP1L 408-416 …; assay: flow cytometry, peptide-pulsed T2 cells; remark: listed apart in the source
[37] = target: T5, HLA-A*02:01 presenting PCDHGC3 337-345 …; assay: flow cytometry, peptide-pulsed T2 cells; remark: listed apart in the source
[38] = target: T6, HLA-A*02:01 presenting SMIM11A 4-12 …; assay: flow cytometry, peptide-pulsed T2 cells; remark: listed apart in the source
[39] = target: T7, HLA-A*02:01 presenting NBAS 2063-2071 …; assay: flow cytometry, peptide-pulsed T2 cells; remark: listed apart in the source
[40] = target: T8, HLA-A*02:01 presenting CARD8 170-178 …; assay: flow cytometry, peptide-pulsed T2 cells; remark: listed apart in the source
[41] = target: T9, HLA-A*02:01 presenting PSME2 145-153 …; assay: flow cytometry, peptide-pulsed T2 cells; remark: listed apart in the source
[42] = target: T10, HLA-A*02:01 presenting CNOT1 1965-1973 …; assay: flow cytometry, peptide-pulsed T2 cells; remark: listed apart in the source
[43] = target: T11, HLA-A*02:01 presenting PLEKHH2 790-798 …; assay: flow cytometry, peptide-pulsed T2 cells; remark: listed apart in the source
[44] = target: T12, HLA-A*02:01 presenting MRPL37 334-342 …; assay: flow cytometry, peptide-pulsed T2 cells; remark: listed apart in the source

B1: bsAb6054 (bispecific antibody, V domains shown)
VH 1: QVQLVESGGGLVKPGGSLRLSCAASGFTFSEYYLTWIRQAPGKGLDWIAYISSSGYNIYYADSVKDRFTISRDNGKNSLFLQMNNLRAEDTAVYFCAREGVTDGMDVWGQGTTVTVSS
VH 2: EVQLVESGGGLVQPGRSLRLSCAASGFTFADYTMHWVRQAPGKGLEWVSDISWNSGSIAYADSVKGRFTISRDNAKNSLYLQMNSLRTEDTAFYYCAKDSRGYGHYKYLGLDVWGQGTTVTVSS
VL: DIQMTQSPSSLSASVGDRVTITCRASQSIDTFLNWYQQKPGKVPKLLIYAASNLESGVPSRFSGSGSGTVFTLTISRLQPEDFATYYCQQSYSIPPITFGQGTRVEIK
In the case of B1, the “EC50, NF-κB luciferase, Jurkat + IM-9, with 2 nM mAb5705 (anti-CD28)” value [1] is reported as 2.1 nM, the “EC50, NF-κB luciferase, Jurkat + U266, with 2 nM mAb5705 (anti-CD28)” value [1] is reported as 6.1 nM and the “Fold Activation, NF-κB luciferase, Jurkat + IM-9, with 2 nM mAb5705 (anti-CD28)” value [1] is reported as 28.7 fold. The “Fold Activation, NF-κB luciferase, Jurkat + U266, with 2 nM mAb5705 (anti-CD28)” value [1] was 8.6 fold, the “EC50, NF-κB luciferase, Jurkat/NF-κB Luc + IM-9” value [2] was 0.74 nM and the “EC50, NF-κB luciferase, Jurkat/NF-κB Luc + U266” value [2] was 3.1 nM. For the same binder, the “Fold Activation, NF-κB luciferase, Jurkat/NF-κB Luc + IM-9” value [2] was 41.9 fold, the “Fold Activation, NF-κB luciferase, Jurkat/NF-κB Luc + U266” value [2] was 6.3 fold and the “EC50 (M), Jurkat/NF-κB-Luc reporter with pulsed T2 cells” value (from here on “EC50 (M), Jurkat/NF-κB-Luc reporter”) [3] was over 2e-08 M. The “Fold change, Jurkat/NF-κB-Luc reporter with pulsed T2 cells” value (from here on “Fold change, Jurkat/NF-κB-Luc reporter”) [3] was 1.2 fold, the “EC50 (M), Jurkat/NF-κB-Luc reporter” value [4] was over 2e-08 M and the “Fold change, Jurkat/NF-κB-Luc reporter” value [4] was 1 fold. The “EC50 (M), Jurkat/NF-κB-Luc reporter” value [5] was 1.3e-09 M, the “Fold change, Jurkat/NF-κB-Luc reporter” value [5] was 81.1 fold and the “EC50 (M), Jurkat/NF-κB-Luc reporter” value [6] was 2e-12 M. For the same binder, the “Fold change, Jurkat/NF-κB-Luc reporter” value [6] was 78.7 fold, the “EC50 (M), Jurkat/NF-κB-Luc reporter” value [7] was 2.1e-11 M and the “Fold change, Jurkat/NF-κB-Luc reporter” value [7] was 36 fold. For the same binder, the “EC50 (M), Jurkat/NF-κB-Luc reporter” value [8] was over 2e-08 M, the “Fold change, Jurkat/NF-κB-Luc reporter” value [8] was 1.2 fold and the “EC50 (M), Jurkat/NF-κB-Luc reporter” value [9] was over 2e-08 M. The “Fold change, Jurkat/NF-κB-Luc reporter” value [9] was 1 fold, the “EC50 (M), Jurkat/NF-κB-Luc reporter” value [10] was over 2e-08 M and the “Fold change, Jurkat/NF-κB-Luc reporter” value [10] was 1 fold. For the same binder, the “EC50 (M), Jurkat/NF-κB-Luc reporter” value [11] was over 2e-08 M, the “Fold change, Jurkat/NF-κB-Luc reporter” value [11] was 1 fold and the “EC50 (M), Jurkat/NF-κB-Luc reporter” value [12] was over 2e-08 M. For the same binder, the “Fold change, Jurkat/NF-κB-Luc reporter” value [12] was 1.3 fold, the “EC50 (M), Jurkat/NF-κB-Luc reporter” value [13] was over 2e-08 M and the “Fold change, Jurkat/NF-κB-Luc reporter” value [13] was 1.2 fold. The “EC50 (M), Jurkat/NF-κB-Luc reporter” value [14] was over 2e-08 M, the “Fold change, Jurkat/NF-κB-Luc reporter” value [14] was 1 fold and the “EC50 (M), Jurkat/NF-κB-Luc reporter” value [15] was over 2e-08 M. For the same binder, the “Fold change, Jurkat/NF-κB-Luc reporter” value [15] was 1 fold, the “EC50 (M), Jurkat/NF-κB-Luc reporter” value [16] was over 2e-08 M and the “Fold change, Jurkat/NF-κB-Luc reporter” value [16] was 2.8 fold. For the same binder, the “EC50 (M), Jurkat/NF-κB-Luc reporter” value [17] was over 2e-08 M and the “Fold change, Jurkat/NF-κB-Luc reporter” value [17] was 2.4 fold.

B2: mAbH31339N2 (antibody, human IgG4 S228P, kappa, V domains shown)
VH: QVQLVESGGGLVKPGGSLRLSCAASGFTFSEYYLTWIRQAPGKGLDWIAYISSSGYNIYYADSVKDRFTISRDNGKNSLFLQMNNLRAEDTAVYFCAREGVTDGMDVWGQGTTVTVSS
VL: DIQMTQSPSSLSASVGDRVTITCRASQSIDTFLNWYQQKPGKVPKLLIYAASNLESGVPSRFSGSGSGTVFTLTISRLQPEDFATYYCQQSYSIPPITFGQGTRVEIKR
notes: Fully human form (human constant region); also called parent antibody
B2: no binding [18]; no binding [19]; no binding [20]. B2: no binding [21]; no binding [22]; no binding [23]. B2: no binding [24]; no binding [25]; no binding [26]. B2: no binding [27]; no binding [28]; no binding [29]. It also gave a S/N ratio [30] of 1, a S/N ratio [31] of 1 and a S/N ratio [32] of 5. For the same binder, the S/N ratio [33] was 310, the S/N ratio [34] was 131 and the S/N ratio [35] was 1. The S/N ratio [36] was 1, the S/N ratio [37] was 1 and the S/N ratio [38] was 1. It also gave a S/N ratio [39] of 1, a S/N ratio [40] of 1 and a S/N ratio [41] of 1. For the same binder, the S/N ratio [42] was 1, the S/N ratio [43] was 1 and the S/N ratio [44] was 1.
